Reference: patent US20240409635A1

Target: keyhole limpet haemocyanin
Assay: ELISA, KLH coated, 100 nM antibody

| absorbance ratio to PBS blank | Substance |
| --- | --- |
| 1.03 | Adalimumab (antibody) |
| 1.15 | Ofatumumab (antibody) |
